Earlier results, collected in article PMC2805756.

Molecular target: His107 (UniProt position 107, SSGMIHLLVQV)
Test: kinetics
Settings: free wild-type enzyme (thiolate-imidazolium ion pair)

With “Arylamine N-acetyltransferase 2 (hamster NAT2), wild type (Mesocricetus auratus (the article says only 'hamster'))” as the substance, how does the pKa read?
Its pKa is greater than 9.5.
